Measurements as given in patent EP1137786B1.

Columns and labels:
CCR5 [1] = biological target: CCR5 (UniProt P51681); test: flow cytometry on L1.2/R5 cells
CCR5 [2] = biological target: CCR5 (UniProt P51681); test: cell-based or functional assay
CXCR4 = CXCR4 (UniProt P61073); test: cell-based or functional assay
Chain of CXCR4 (P61073 whole entry): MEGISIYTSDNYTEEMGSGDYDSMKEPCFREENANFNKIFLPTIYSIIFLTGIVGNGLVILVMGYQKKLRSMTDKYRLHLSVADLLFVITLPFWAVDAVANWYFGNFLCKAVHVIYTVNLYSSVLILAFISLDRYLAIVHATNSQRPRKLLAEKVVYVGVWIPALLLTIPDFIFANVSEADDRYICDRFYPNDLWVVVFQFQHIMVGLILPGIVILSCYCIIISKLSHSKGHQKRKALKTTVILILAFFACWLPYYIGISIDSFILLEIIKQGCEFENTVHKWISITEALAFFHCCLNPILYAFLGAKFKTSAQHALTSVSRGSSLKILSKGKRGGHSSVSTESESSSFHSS

Chain of CCR5 (P51681 whole entry): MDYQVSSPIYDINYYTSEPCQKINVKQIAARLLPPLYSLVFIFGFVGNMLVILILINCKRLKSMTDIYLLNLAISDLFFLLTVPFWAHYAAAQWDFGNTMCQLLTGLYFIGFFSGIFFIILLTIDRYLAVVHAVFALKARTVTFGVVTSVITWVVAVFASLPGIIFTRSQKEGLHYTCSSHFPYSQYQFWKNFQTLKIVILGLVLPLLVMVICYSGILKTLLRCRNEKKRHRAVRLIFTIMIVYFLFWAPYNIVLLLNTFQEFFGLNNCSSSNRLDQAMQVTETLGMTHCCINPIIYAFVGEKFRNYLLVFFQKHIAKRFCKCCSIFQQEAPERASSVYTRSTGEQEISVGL

Row | Substance | fold higher concentration needed to approach saturation binding, against FLSC (CCR5 [1]) | ID90, neutralization of HIV 89.6 on U373/CD4/CCR5 cells (CCR5 [2]) | ID90, neutralization of HIV ADA on U373/CD4/CCR5 cells (CCR5 [2]) | ID90, neutralization of HIV BaL on U373/CD4/CCR5 cells (CCR5 [2]) | ID90, neutralization of HIV 89.6 on U373/CD4/CXCR4 cells (CXCR4) | ID90, neutralization of HIV 2005 on U373/CD4/CXCR4 cells (CXCR4) | ID90, neutralization of HIV 2044 on U373/CD4/CXCR4 cells (CXCR4)
1 | truncated single chain (TcSC) gp120-CD4 chimeric polypeptide (from UniProt P01730 26-208) | 10 fold |  |  |  |  |  | 
2 | gp120-CD4-IgG1 chimeric polypeptide (from UniProt P01730 26-208) (Fc fusion) |  | 3.56 µg/mL | 4.58 µg/mL | 3.1 µg/mL | > 10 µg/mL | > 10 µg/mL | > 10 µg/mL
